± gives the uncertainty stated by the source.
B1: Cold shock protein CspB, residues 1 to 66; numbered along this chain, P41016 (parent)
chain: MQRGKVKWFNNEKGYGFIEVEGGSDVFVHFTAIQGEGFKTLEEGQEVSFEIVQGNRGPQAANVVKL

Variants of: B1
Experiment: abundance fitness (aPCA) (normalised: wild type 0, dead -1); higher = more abundant; growth selection in yeast, the domain comes from the species named
Details: Bacillus caldolyticus

Point of comparison: G16R, abundance fitness -1.08 ± 0.056. Against it:
- K13V — higher, -0.044 ± 0.045
- K13F — higher, -0.1 ± 0.057
- K13R — higher, -0.007 ± 0.037
- K13D — higher, -0.09 ± 0.048
- K13L — higher, 0.014 ± 0.027
- K13Q — higher, -0.072 ± 0.052
- K13N — higher, -0.106 ± 0.068
- K13P — higher, -0.154 ± 0.036
- K13A — higher, -0.078 ± 0.058
- K13M — higher, -0.019 ± 0.042
- K13E — higher, -0.133 ± 0.05
- K13W — higher, -0.089 ± 0.043
- K13G — higher, -0.131 ± 0.043
- K13I — higher, -0.065 ± 0.056
- K13H — higher, 0 ± 0.084
- K13S — higher, -0.044 ± 0.038
- K13C — higher, -0.071 ± 0.062
- K13Y — higher, -0.03 ± 0.083
- W8R — higher, -0.075 ± 0.42
- W8G — higher, -0.304 ± 0.2
- W8C — higher, -0.046 ± 0.12
- S24L — higher, -0.002 ± 0.033
- S24D — higher, -0.002 ± 0.071
- S24Y — higher, -0.016 ± 0.084
- S24I — higher, -0.033 ± 0.081
- S24V — higher, -0.016 ± 0.039
- S24K — higher, 0.015 ± 0.049
- S24N — higher, 0.004 ± 0.081
- S24Q — higher, -0.004 ± 0.055
- S24P — higher, 0.012 ± 0.057
- S24H — higher, 0.007 ± 0.072
- S24M — higher, -0.019 ± 0.055
- S24F — higher, -0.025 ± 0.058
- S24W — higher, -0.031 ± 0.039
- S24T — higher, 0.003 ± 0.047
- S24C — higher, -0.029 ± 0.041
- S24R — higher, 0.01 ± 0.029
- S24A — higher, -0.011 ± 0.055
- V6H — higher, -0.863 ± 0.084
- V6R — higher, -0.971 ± 0.052
- V6T — higher, -0.002 ± 0.048
- V6W — higher, -0.756 ± 0.058
- V6G — higher, -0.452 ± 0.026
- V6F — higher, -0.622 ± 0.051
- V6L — higher, -0.158 ± 0.03
- V6M — higher, -0.104 ± 0.059
- V6Q — higher, -0.824 ± 0.066
- V6S — higher, -0.324 ± 0.036
- V6I — higher, -0.017 ± 0.04
- V6P — higher, -0.801 ± 0.081
- V26M — higher, -0.056 ± 0.043
- V26F — higher, -0.11 ± 0.054
- V26W — higher, -0.23 ± 0.035
- V26K — higher, -0.251 ± 0.059
- V26C — higher, -0.053 ± 0.048
- V26S — higher, -0.195 ± 0.029
- V26G — higher, -0.573 ± 0.036
- V26H — higher, -0.132 ± 0.075
- V26Q — higher, -0.173 ± 0.04
- V26P — higher, -0.566 ± 0.038
- V26D — higher, -0.529 ± 0.06
- V26I — higher, -0.017 ± 0.045
- V26E — higher, -0.372 ± 0.043
- V26R — higher, -0.248 ± 0.032
- D25A — higher, -0.113 ± 0.04
- D25Y — higher, -0.231 ± 0.06
- D25N — higher, -0.047 ± 0.08
- D25P — higher, -0.093 ± 0.036
- D25I — higher, -0.214 ± 0.063
- D25Q — higher, -0.073 ± 0.054
- D25T — higher, -0.073 ± 0.041
- D25V — higher, -0.141 ± 0.035
- D25G — higher, -0.257 ± 0.047
- D25W — higher, -0.26 ± 0.036
- D25H — higher, -0.102 ± 0.064
- D25K — higher, -0.093 ± 0.046
- D25M — higher, -0.153 ± 0.043
- D25E — higher, -0.082 ± 0.043
- D25S — higher, -0.053 ± 0.032
- D25F — higher, -0.251 ± 0.054
- G16F — higher, -0.937 ± 0.071
- G16Y — within error, -0.946 ± 0.099
- G16L — higher, -0.901 ± 0.046
- G16K — the same, -1.08 ± 0.15
- G16I — higher, -0.911 ± 0.07
- G16D — within error, -0.927 ± 0.1
- G16V — higher, -0.847 ± 0.046
- G16E — within error, -1.16 ± 0.12
- G16C — higher, -0.861 ± 0.06
- G16N — within error, -0.98 ± 0.11
- G16T — within error, -0.954 ± 0.087
- G16M — within error, -0.965 ± 0.077
- G16W — within error, -1.18 ± 0.13
- G16S — within error, -1.01 ± 0.054
- G16A — higher, -0.696 ± 0.046
- G16H — within error, -1 ± 0.15
- E19N — higher, -0.003 ± 0.083
- E19L — higher, 0.019 ± 0.033
- E19G — higher, 0.023 ± 0.039
- E19C — higher, 0.021 ± 0.06
- E19F — higher, -0.048 ± 0.05
- E19P — higher, -0.316 ± 0.037
- E19I — higher, -0.021 ± 0.059
- E19K — higher, 0.031 ± 0.078
- E19D — higher, 0.006 ± 0.072
- E19Q — higher, 0.009 ± 0.057
- E19A — higher, 0.05 ± 0.052
- E19S — higher, 0.016 ± 0.031
- E19H — higher, 0.016 ± 0.073
- E19V — higher, 0.002 ± 0.044
- E19M — higher, 0 ± 0.043
- E19Y — higher, -0.075 ± 0.057
- E19R — higher, 0.008 ± 0.037
- E19T — higher, -0.029 ± 0.064
- E19W — higher, -0.011 ± 0.044
- G14S — higher, -0.123 ± 0.029
- G14L — higher, -0.24 ± 0.028
- G14M — higher, -0.202 ± 0.053
- G14K — higher, -0.06 ± 0.061
- G14V — higher, -0.778 ± 0.04
- G14R — higher, -0.062 ± 0.031
- G14F — higher, -0.484 ± 0.06
- G14E — higher, -0.359 ± 0.032
- G14H — higher, -0.047 ± 0.072
- G14Q — higher, -0.196 ± 0.044
- G14I — higher, -0.902 ± 0.077
- G14A — higher, -0.175 ± 0.035
- G14D — higher, -0.468 ± 0.059
- G14Y — higher, -0.445 ± 0.07
- G14T — higher, -0.383 ± 0.039
- G14P — higher, -0.91 ± 0.073
- G14C — higher, -0.13 ± 0.081
- N10C — higher, -0.027 ± 0.048
- N10A — higher, -0.047 ± 0.034
- N10I — higher, -0.023 ± 0.074
- N10M — higher, -0.083 ± 0.053
- N10Y — higher, -0.214 ± 0.062
- N10E — higher, -0.079 ± 0.051
- N10P — higher, -0.792 ± 0.053
- N10R — higher, -0.031 ± 0.028
- N10W — higher, -0.122 ± 0.037
- N10T — higher, -0.118 ± 0.051
- N10Q — higher, -0.025 ± 0.049
- N10F — higher, -0.132 ± 0.061
- N10D — higher, -0.086 ± 0.061
- N10L — higher, -0.069 ± 0.032
- N10K — higher, -0.038 ± 0.056
- N10S — higher, 0.01 ± 0.034
- K7C — higher, -0.003 ± 0.035
- K7T — higher, -0.052 ± 0.032
- K7P — higher, -0.817 ± 0.057
- K7G — higher, -0.106 ± 0.031
- K7N — higher, -0.016 ± 0.04
- K7V — higher, -0.034 ± 0.028
- K7D — higher, -0.199 ± 0.048
- K7W — higher, -0.49 ± 0.057
- K7Q — higher, -0.07 ± 0.051
- K7M — higher, -0.072 ± 0.049
- K7H — higher, -0.088 ± 0.046
- K7L — higher, -0.058 ± 0.027
- K7Y — higher, -0.316 ± 0.042
- K7I — higher, 0.02 ± 0.052
- K7S — higher, -0.033 ± 0.026
- K7A — higher, -0.002 ± 0.03
- K7E — higher, -0.225 ± 0.055
- K7R — higher, -0.045 ± 0.034

Source: the Human Domainome abundance scans (Beltran et al. 2025)
